This note sets out measurements from paper doi:10.1101/2021.04.27.441571.

Experiment [1] concerns the target wild type (WT) talin R3 domain.
In experiment [2] the target is talin R3-IVVI domain.
The target in experiment [3] is talin R3-IVVI domain. The source holds these as a separate data set.
The target in experiment [4] is talin R3-IVVI domain. The source holds these as a separate data set.
Experiment [5] deals with talin R3-IVVI domain. This is another data set of the same source.

Take “DnaK (from UniProt P0A6Y8 1-638) (natural protein)”: the intersection force of R3-WT with DnaK; without chaperone ∼6 pN in experiment [1] is 4 pN. Further, in experiment [2], the intersection force of R3-IVVI with DnaK-ADP complex (chevron plot) came to 7.1 pN and the intersection force of R3-IVVI with DnaK-ATP (chevron plot) turned out to be 7.6 pN. In addition, the percent of force-ramp events of R3-IVVI with hysteresis, with DnaK; control ∼9% in experiment [3] was found to be 91%. Further, in experiment [4], the unfolding force of R3-IVVI in the presence of DnaK, DnaJ and ADP (DnaKJ-ADP) was 6 pN; the unfolding force of R3-IVVI with DnaK after addition of ATP (apo-DnaK: ∼6 pN) stood at 7.5 pN.
In turn, “DnaJ (from UniProt P08622 1-376) (natural protein)” came in with an intersection force of R3-WT with DnaJ; without chaperone ∼6 pN in experiment [1] of 4 pN. Besides, the percent of force-ramp events of R3-IVVI with hysteresis, with DnaJ; control ∼9% in experiment [3] came out at 86%.
Take “Hsp70 (from UniProt P0DMV8 1-641) (natural protein)”: in experiment [5], the intersection force of talin R3-IVVI (chevron plot), with Hsp70; control 9.8 pN came to 7.2 pN.
As to “Hsp40 (from UniProt P25685 1-340) (natural protein)”, the intersection force of talin R3-IVVI (chevron plot), with Hsp40; control 9.8 pN in experiment [5] came to 7.8 pN.

B1: DsbA (oxidized) (enzyme)
chain: AQYEDGKQYTTLEKPVAGAPQVLEFFSFFCPHCYQFEEVLHISDNVKKKLPEGVKMTKYHVNFMGGDLGKDLTQAWAVAMALGVEDKVTVPLFEGVQKTQTIRSASDIRDVFINAGIKGEEYDAAWNSFVVKSLVAQQEKAAADVQLRGVPAMFVNGKYQLNPQGMDTSNMDVFVQQYADTVKYLSEKK
modifications: oxidized (0.3% H2O2 overnight)
Take B1: in experiment [1], the intersection force of R3-WT with DsbA; without chaperone ∼6 pN was found to be 10 pN.
